Source: US20260193679A1, “SYSTEMS AND METHODS FOR MODIFYING A POLYNUCLEOTIDE” (The Children's Medical Center Corporation, priority 2023, published 2026)

Key:
[1] = test system: ATP1A1; experiment: Prime editing at ATP1A1 (Q118R) in CD34+ HSPCs; PE and indels quantified by BEAT/TIDE (Sanger) or CRISPResso2 (amplicon sequencing); assay type: cell-based, human; settings: for PE2max efficiency: compared to two substitutions (v1), no nicking sgRNA
[2] = test system: B2M; experiment: Prime editing at B2M in CD34+ HSPCs; assay type: cell-based, human; settings: PE2max; average, three donors; amplicon sequencing
From the text: FIGS. 6A-6D provide schematics and plots showing that modulation of nucleotide metabolism positively interacts with MMR evasion. (FIG. 6A) PE and indel quantification as determined by CRISPResso2 analysis from amplicon sequencing. The MMR evasion strategy based on the installation of additional silent mutations and the epegRNAs used to target the ATP1A1 locus are illustrated. Point mutations are illustrated in orange. 2.5×10^5 HSPCs were electroporated with PE2max RNAs targeting ATP1A1 and cultured in the presence or absence of 50 μM each dN and 25× in-house Vpx VLPs. Genomic DNA was harvested 3 days post-nucleofection. Data are plotted as mean±SEM from n=3 independent biological replicates performed with CD34^+ HSPCs from three different donors. (FIG. 6B) Same as in (FIG. 6A), but HSPCs were electroporated with Vpx mRNA and PE2max RNAs targeting B2M. Data are plotted as mean±SEM from n=3 independent biological replicates performed with CD34^+ HSPCs from three different donors. (FIG. 6C) Same as in (FIG. 6B), but HSPCs were electroporated with Vpx mRNA and PE3max RNAs targeting the HBG1/HBG2 promoters. […]
FIGS. 10A-10C provide a schematic and plots showing that modulation of nucleotide metabolism positively interacts with MMR-evading epegRNAs in quiescent HSPCs. […] (FIG. 10B) PE and indels quantification as determined by BEAT and TIDE analysis from Sanger sequencing. […]

In the case of “PE2: first-generation prime editor mRNA, SEQ ID NO: 67 [reference compound]”, the “frequency of alleles harboring the ATP1A1-Q118R mutation” value ([1]; PE2 mRNA + epegRNA/nicking sgRNA, absence of VPX VLPs, average, two donors, Sanger sequencing) is reported as 17%.

For “PEmax: PEmax prime editor mRNA, SEQ ID NO: 68 [reference compound]”, the “basal level of editing, ATP1A1-Q118R allele frequency” value ([1]; PEmax mRNA (PE3max RNAs), no dNs, average, three donors) was 41%.

B1: original B2M epegRNA: synthetic epegRNA to knockout B2M, single nucleotide substitution; SEQ ID NO: 12 (nucleic acid)
guide: GAGUAGCGCGAGCACAGCUAGUUUUAGAGCUAGAAAUAGCAAGUUAAAAUAAGGCUAGUCCGUUAUCAACUUGAAAAAGUGGCACCGAGUCGGUGCUCCGUGGCCUGAGCUGUGCUCGCGCCGCGGUUCUAUCUAGUUACGCGUUAAACCAACUAGAAUUU
modifications: modified_base 1 OTHER; 2'-O-methyl modified nucleotide with phosphorothioate linkage; modified_base 2 OTHER; modified_base 3 OTHER; modified_base 158 OTHER; Nucleotide with phosphorothioate linkage; modified_base 159 OTHER; 2'-O-methyl modified nucleotide with phosphorothio
B1 showed a PE efficiency [2] of 2%.

B2: ATP1A1-Q118R_v2 epegRNA: synthetic epegRNA, SEQ ID NO: 7; three substitutions, optimized to evade MMR (nucleic acid)
guide: GUUCCUCUUCUGUAGCAGCUGUUUUAGAGCUAGAAAUAGCAAGUUAAAAUAAGGCUAGUCCGUUAUCAACUUGAAAAAGUGGCACCGAGUCGGUGCUAGCAUCAGGGCUGCUACAGAAGAGCGCGGUUCUAUCUAGUUACGCGUUAAACCAACUAGAAUUU
modifications: modified_base 1 OTHER; 2'-O-methyl modified nucleotide with phosphorothioate linkage; modified_base 2 OTHER; modified_base 3 OTHER; modified_base 158 OTHER; Nucleotide with phosphorothioate linkage; modified_base 159 OTHER; 2'-O-methyl modified nucleotide with phosphorothio
notes: three substitutions, optimized to evade MMR
B2 was tested, and the PE2max efficiency [1] was “marked increase” and the “level of improvement by Vpx mRNA co-delivery and dN supplementation” value ([1]; quiescent HSPCs, compared with HBB and B2M epegRNAs) was “highest level of improvement”.

B3: v3 epegRNA: synthetic epegRNA, SEQ ID NO: 8; four substitutions (+3 TTGG to CCTA) (nucleic acid)
guide: GUUCCUCUUCUGUAGCAGCUGUUUUAGAGCUAGAAAUAGCAAGUUAAAAUAAGGCUAGUCCGUUAUCAACUUGAAAAAGUGGCACCGAGUCGGUGCUAGCAUUAGGGCUGCUACAGAAGAGCGCGGUUCUAUCUAGUUACGCGUUAAACCAACUAGAAUUU
modifications: modified_base 1 OTHER; 2'-O-methyl modified nucleotide with phosphorothioate linkage; modified_base 2 OTHER; modified_base 3 OTHER; modified_base 158 OTHER; Nucleotide with phosphorothioate linkage; modified_base 159 OTHER; 2'-O-methyl modified nucleotide with phosphorothio
B3 was tested, and the “precise prime editing allele frequency” value ([1]; PE2max, without Vpx VLPs and dNs, average, amplicon sequencing) was 20.1% and the PE2max efficiency [1] was “marked increase”.
